Holding throughout (assay): EMSA
On the technique in general: A gel shift assay detects complexes by their altered migration in electrophoresis.

The target of data set [1] is RRM-RGG F/A1 (UniProt P19338 267-709, F663A).
Data set [2] has as its target RRM-RGG F/A2 (UniProt P19338 267-709, F663A;F676A).
Data set [3] addresses nucleolin RRM-RGG (UniProt P19338 267-709).
Data set [4] has as its target RRM-RGG F/A3 (UniProt P19338 267-709, F663A;F676A;F684A).
For data set [5], the target named is T1, nucleolin RRM (UniProt P19338 267-645).
T1 sequence (P19338 267-645): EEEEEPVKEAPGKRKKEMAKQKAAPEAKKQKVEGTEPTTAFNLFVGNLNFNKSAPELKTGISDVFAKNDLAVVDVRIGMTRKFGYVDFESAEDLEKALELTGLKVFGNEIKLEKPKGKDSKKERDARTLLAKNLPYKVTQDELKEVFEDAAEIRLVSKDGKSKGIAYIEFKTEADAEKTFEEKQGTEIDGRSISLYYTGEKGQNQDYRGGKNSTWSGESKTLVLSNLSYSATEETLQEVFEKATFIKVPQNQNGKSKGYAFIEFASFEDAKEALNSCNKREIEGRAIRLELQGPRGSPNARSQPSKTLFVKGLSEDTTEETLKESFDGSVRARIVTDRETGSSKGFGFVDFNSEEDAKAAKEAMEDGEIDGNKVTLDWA
Data set [6] has as its target T1, nucleolin RRM. The source holds these as a separate data set.

RRM-RGG F/A3, sequence (P19338 267-709 F663A/F676A/F684A): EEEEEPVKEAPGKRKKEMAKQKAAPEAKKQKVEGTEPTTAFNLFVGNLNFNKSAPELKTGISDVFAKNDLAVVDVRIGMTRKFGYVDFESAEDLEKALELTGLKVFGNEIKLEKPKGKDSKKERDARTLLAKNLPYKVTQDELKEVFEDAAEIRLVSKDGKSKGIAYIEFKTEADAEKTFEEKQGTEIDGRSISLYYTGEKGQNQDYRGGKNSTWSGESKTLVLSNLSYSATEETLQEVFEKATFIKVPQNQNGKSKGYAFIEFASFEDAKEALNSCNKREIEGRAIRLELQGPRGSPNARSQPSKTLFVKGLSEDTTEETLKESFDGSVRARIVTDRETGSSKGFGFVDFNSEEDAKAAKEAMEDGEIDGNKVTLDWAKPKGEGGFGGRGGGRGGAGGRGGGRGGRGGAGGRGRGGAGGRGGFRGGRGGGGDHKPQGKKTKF
nucleolin RRM-RGG, sequence (P19338 267-709): as the sequence (P19338 267-709 F663A/F676A/F684A) above, with A397F, A410F, A418F counted along it
RRM-RGG F/A2, sequence (P19338 267-709 F663A/F676A): as the sequence (P19338 267-709 F663A/F676A/F684A) above, with A418F counted along it
RRM-RGG F/A1, sequence (P19338 267-709 F663A): as the sequence (P19338 267-709 F663A/F676A/F684A) above, with A410F, A418F counted along it

Broadly, the Kd is the equilibrium constant for the complex coming apart. GGGCGCGGGAGGAATTGGGCGGG (structured_DNA) [BCL-2]: the Kd in data set [1] turned out to be 75.5 ± 9.5 nM; in data set [2], 71.8 ± 6.9 nM; in data set [3] it was 79.6 ± 4 nM; in data set [4] it was 172 ± 9.1 nM; in data set [5], 73.6 ± 7.1 nM.

Regarding GGGGGGGGGG (ssDNA) [dG10], the binding result in data set [6] is given as “binds”.

The record behind these values is article PMC7081427.
